From the supplement of paper PMC7877785
± gives the uncertainty stated by the source.

Experiment: self-splicing fitness, log relative to wild type (ln ratio); higher = more splicing; Tetrahymena group I intron in knt gene, E. coli kanamycin selection, DiMSum; sequences stand for … in CUCUCU…GGAGGGAAAAGUUAUCAGGCAUGCACCUGGUAGCUAGUCUUUAAACCAAUAGAUUGCAUCGGUUUAAAAGGCAAGACCGUCAAAUUGCGGGAAAGGGGUCAACAGCCGUUCAGUACCAAGUCUCAGGGGAAACUUUGAGAUGGCCUUGCAAAGGGUAUGGUAAUAAGCUGACGGACAUGGUCCUAACCACGCAGCCAAGUCCUAAGUCAACAGAUCUUCUGUUGAUAUGGAUGCAGUUCACAGACUAAAUGUCGGUCGGGGAAGAUGUAUUCUUCUCAUAAGAUAUAGUCGGACCUCUCCUUAAUGGGAGCUAGCGGAUGAAGUGAUGCAACACUGGAGCCGCUGGGAACUAAUUUGUAUGCGAAAGUAUAUUGAUUAGUUUUGGAGUACUCGUGGUCG
Summary of the method: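 The eight P1ex-region nucleotides of an intron in the knt kanamycin-resistance gene on pET-22b(+) were all randomised and the library put into E. coli BL21(DE3). Six replicate transformations were grown overnight at 37°C or 30°C on LB agar with or without 25 μg/mL kanamycin, together with 100 μg/mL carbenicillin, 50 μM IPTG and 0.2% rhamnose. Colonies were pooled and amplicon-sequenced on an Illumina HiSeq 2500. Fitness from DiMSum is the error-weighted combination of wild-type-normalised replicate fold changes, kanamycin over none.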

Sequence | self-splicing fitness (ln) (30 °C) | self-splicing fitness (ln) (37 °C)
AGCGAGCAAUAUUACGAGAG | -3.19 ± 0.32 | -2.94 ± 0.32
AGCGAGCAAUAUUACGAGGU | -3.69 ± 0.24 | -2.48 ± 0.3
AGCGAGCAAUAUUACGCACC | -0.941 ± 0.45 | -0.411 ± 0.37
AGCGAGCAAUAUUACGCCGU | – | -1.24 ± 0.34
AGCGAGCAAUAUUACGCGCG | -4.04 ± 0.33 | -1.89 ± 0.25
AGCGAGCAAUAUUACGGAAG | -4.34 ± 0.42 | -2.68 ± 0.29
AGCGAGCAAUAUUACGGCCG | -2.6 ± 0.34 | -1.72 ± 0.26
AGCGAGCAAUAUUACGGCGC | -2.72 ± 0.22 | -1.98 ± 0.2
AGCGAGCAAUAUUACGGGAA | – | -1.86 ± 0.27
AGCGAGCAAUAUUACGGGGA | -2.64 ± 0.35 | -1.22 ± 0.22
AGCGAGCAAUAUUACGGGGG | -2.6 ± 0.33 | -2.04 ± 0.41
AGCGAGCAAUAUUACGUAUC | – | -3.38 ± 0.39
AGCGAGCAAUAUUACGUCUG | -2.03 ± 0.11 | -1.8 ± 0.14
AGCGAGCAAUAUUACGUGAC | -3.4 ± 0.28 | –
AGCGAGCAAUAUUACGUGGC | -4.97 ± 0.31 | -2.46 ± 0.2
AGCGAGCAAUAUUACGUGGU | -3.2 ± 0.25 | -3.06 ± 0.22
AGCGAGCAAUAUUACGUUAG | -2.38 ± 0.11 | -3.18 ± 0.27
AGCGAGCAAUAUUACGUUUA | – | -1.96 ± 0.26
AGCUAGCAAUAUUACGACGC | -1.63 ± 0.098 | -0.406 ± 0.13
AGCUAGCAAUAUUACGACUC | -2.01 ± 0.16 | -1.24 ± 0.15
AGCUAGCAAUAUUACGAGCC | -3.51 ± 0.32 | -2.5 ± 0.49
AGCUAGCAAUAUUACGAGUA | -1.65 ± 0.15 | -0.618 ± 0.12
AGCUAGCAAUAUUACGAGUU | -2.58 ± 0.16 | -2.45 ± 0.22
AGCUAGCAAUAUUACGAUUU | -0.0195 ± 0.06 | 0.214 ± 0.086
AGCUAGCAAUAUUACGCAGA | -3.4 ± 0.34 | -1.82 ± 0.18
AGCUAGCAAUAUUACGCCGC | -2.36 ± 0.2 | -3.06 ± 0.47

Sequence | self-splicing fitness (ln) (30 °C) | self-splicing fitness (ln) (37 °C)
AGCUAGCAAUAUUACGCCGG | -2.94 ± 0.2 | -1.85 ± 0.34
AGCUAGCAAUAUUACGCGAA | -3.09 ± 0.23 | -1.24 ± 0.22
AGCUAGCAAUAUUACGCGCG | -0.92 ± 0.18 | -0.121 ± 0.17
AGCUAGCAAUAUUACGCUCG | -2.6 ± 0.19 | -1.53 ± 0.17
AGCUAGCAAUAUUACGGACC | -0.63 ± 0.12 | -0.00494 ± 0.17
AGCUAGCAAUAUUACGGCCA | -0.689 ± 0.15 | 0.469 ± 0.18
AGCUAGCAAUAUUACGGCUU | -3.43 ± 0.21 | -2.62 ± 0.23
AGCUAGCAAUAUUACGGGCU | -3.47 ± 0.27 | -2.91 ± 0.36
AGCUAGCAAUAUUACGGGGG | -3.05 ± 0.31 | -1.64 ± 0.27
AGCUAGCAAUAUUACGGUCU | -0.425 ± 0.068 | 0.136 ± 0.088
AGCUAGCAAUAUUACGGUGG | -2.04 ± 0.092 | -2.46 ± 0.17
AGCUAGCAAUAUUACGUACU | -0.454 ± 0.095 | -0.144 ± 0.12
AGCUAGCAAUAUUACGUAGU | -3.32 ± 0.12 | -2.85 ± 0.14
AGCUAGCAAUAUUACGUGCU | -3.87 ± 0.35 | -2.44 ± 0.23
AGCUAGCAAUAUUACGUGUU | -1.86 ± 0.14 | -2.11 ± 0.14
AGCUAGCAAUAUUACGUUAC | -3.52 ± 0.27 | -1.87 ± 0.18
AGCUAGCAAUAUUACGUUGG | -3.61 ± 0.19 | -2.03 ± 0.18
AGGAAGCAAUAUUACGAAUC | -2.86 ± 0.25 | –
AGGAAGCAAUAUUACGAAUU | -2.58 ± 0.13 | -1.45 ± 0.15
AGGAAGCAAUAUUACGACCG | -0.0847 ± 0.2 | 0.135 ± 0.23
AGGAAGCAAUAUUACGAGGA | -2.39 ± 0.29 | -2.32 ± 0.22
AGGAAGCAAUAUUACGAGUC | -2.85 ± 0.35 | -1.61 ± 0.27
AGGAAGCAAUAUUACGAUCG | -1.27 ± 0.16 | -0.489 ± 0.16
AGGAAGCAAUAUUACGCACU | -0.845 ± 0.22 | -1.35 ± 0.29
AGGAAGCAAUAUUACGCAUG | -3.2 ± 0.16 | -1.31 ± 0.12
AGGAAGCAAUAUUACGCCAU | -3.16 ± 0.27 | -2 ± 0.38

Sequence | self-splicing fitness (ln) (30 °C) | self-splicing fitness (ln) (37 °C)
AGGAAGCAAUAUUACGCCCG | -0.151 ± 0.17 | -0.394 ± 0.2
AGGAAGCAAUAUUACGCCGA | -1.95 ± 0.17 | -0.0948 ± 0.12
AGGAAGCAAUAUUACGCGCC | -1.61 ± 0.29 | -0.761 ± 0.27
AGGAAGCAAUAUUACGCUGA | -2.96 ± 0.23 | -1.97 ± 0.22
AGGAAGCAAUAUUACGCUUU | -4.15 ± 0.39 | -2.32 ± 0.27
AGGAAGCAAUAUUACGGAGG | -2.71 ± 0.34 | -2.28 ± 0.35
AGGAAGCAAUAUUACGGCUA | -0.35 ± 0.11 | 0.0571 ± 0.15
AGGAAGCAAUAUUACGGGCU | -1.72 ± 0.12 | -0.915 ± 0.13
AGGAAGCAAUAUUACGGGUA | -2 ± 0.24 | -1.6 ± 0.21
AGGAAGCAAUAUUACGGUGG | -3.94 ± 0.22 | -1.64 ± 0.28
AGGAAGCAAUAUUACGUACC | -0.353 ± 0.12 | -0.748 ± 0.16
AGGAAGCAAUAUUACGUAGU | -2.73 ± 0.15 | -2.63 ± 0.21
AGGAAGCAAUAUUACGUCCG | -0.623 ± 0.16 | 0.408 ± 0.2
AGGAAGCAAUAUUACGUCGC | -2.62 ± 0.28 | -2.06 ± 0.24
AGGAAGCAAUAUUACGUGAC | -3.65 ± 0.22 | -2.45 ± 0.15
AGGAAGCAAUAUUACGUGUC | -3.14 ± 0.27 | -1.57 ± 0.19
AGGCAGCAAUAUUACGAAAG | -3.39 ± 0.22 | -2.46 ± 0.22
AGGCAGCAAUAUUACGACCU | -1.51 ± 0.14 | -1.28 ± 0.17
AGGCAGCAAUAUUACGACUA | 0.127 ± 0.11 | -0.125 ± 0.12
AGGCAGCAAUAUUACGAGCG | -1.13 ± 0.074 | 0.237 ± 0.088
AGGCAGCAAUAUUACGAGGG | -2.52 ± 0.11 | -2.83 ± 0.23
AGGCAGCAAUAUUACGAUUC | -1.71 ± 0.13 | -0.305 ± 0.16
AGGCAGCAAUAUUACGCAUG | -2.69 ± 0.17 | -0.809 ± 0.17
AGGCAGCAAUAUUACGCCCU | -2.89 ± 0.4 | –
AGGCAGCAAUAUUACGCCGG | -1.09 ± 0.15 | -1.66 ± 0.17
